Molecular target: T1, Cdk6 (Abcam's ab84717, recombinant full length Human Cdk6 (amino acids 1-326) with N-terminal His tag) (human, UniProt Q00534 1-326)
T1 construct: range 1-326; Bought reagent (Abcam ab84717), coated on the ELISA plate at 1 ug/ml; also called CDk6 protein; not shown: N-terminal His tag of the bought protein
Experiment: ELISA: Cdk6 coated on plate, p16 at 0-10 uM, detected with anti-p16 antibody and HRP secondary, A450

T1 sequence (Q00534 whole entry, the tested form may be a part): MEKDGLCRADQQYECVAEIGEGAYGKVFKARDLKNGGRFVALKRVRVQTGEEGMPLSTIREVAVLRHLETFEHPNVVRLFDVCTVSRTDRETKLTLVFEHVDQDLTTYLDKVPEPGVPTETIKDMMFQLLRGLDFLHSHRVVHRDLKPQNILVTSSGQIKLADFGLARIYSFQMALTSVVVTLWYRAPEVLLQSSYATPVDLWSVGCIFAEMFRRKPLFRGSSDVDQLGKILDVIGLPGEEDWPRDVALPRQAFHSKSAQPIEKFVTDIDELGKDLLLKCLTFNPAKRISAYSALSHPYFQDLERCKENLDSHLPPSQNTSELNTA

binding result: binds
B1: human p16 protein variant (SEQ ID NO: 2; W15K, L37D, L65K, C72S, L78S, V106A, L113T) (other)
chain: MEPAAGSSMEPSADKLATAAARGRVEEVRALLEAGADPNAPNSYGRRPIQVMMMGSARVAELLLKHGAEPNSADPATSTRPVHDAAREGFLDTLVVLHRAGARLDARDAWGRTPVDLAEELGHRDVARYLRAAAGGTRGSNHARIDAAEGPSDIPD
notes: also called p16INK4a variant; mt p16

From US20150218240A1 (SAMSUNG ELECTRONICS, published 2015)
